The values below come from US20060121042A1 (AstraZeneca / MedImmune, published 2006).

One test deals with T1, rmEph B2 (mouse, UniProt P54763).
T1 sequence (receptor, looked up): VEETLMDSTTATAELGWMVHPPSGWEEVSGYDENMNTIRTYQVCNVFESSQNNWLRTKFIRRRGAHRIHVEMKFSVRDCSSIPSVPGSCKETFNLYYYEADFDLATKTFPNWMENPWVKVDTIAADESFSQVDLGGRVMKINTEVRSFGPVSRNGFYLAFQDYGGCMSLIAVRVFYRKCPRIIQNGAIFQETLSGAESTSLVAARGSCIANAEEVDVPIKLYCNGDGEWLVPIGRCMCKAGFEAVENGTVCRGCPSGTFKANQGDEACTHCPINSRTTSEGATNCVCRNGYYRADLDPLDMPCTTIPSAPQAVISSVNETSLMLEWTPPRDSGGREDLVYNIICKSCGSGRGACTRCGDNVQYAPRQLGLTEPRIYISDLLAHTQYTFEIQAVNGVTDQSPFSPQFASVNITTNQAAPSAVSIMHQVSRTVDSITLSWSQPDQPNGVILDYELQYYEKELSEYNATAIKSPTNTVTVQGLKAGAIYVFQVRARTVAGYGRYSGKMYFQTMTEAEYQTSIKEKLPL
Put plainly: ELISA. A general note: In an ELISA, binding on a coated surface is turned into a signal by an enzyme label.

For a further test, the target named is T2, rrEphB1 (rat, UniProt P09759).
T2 sequence (receptor, looked up): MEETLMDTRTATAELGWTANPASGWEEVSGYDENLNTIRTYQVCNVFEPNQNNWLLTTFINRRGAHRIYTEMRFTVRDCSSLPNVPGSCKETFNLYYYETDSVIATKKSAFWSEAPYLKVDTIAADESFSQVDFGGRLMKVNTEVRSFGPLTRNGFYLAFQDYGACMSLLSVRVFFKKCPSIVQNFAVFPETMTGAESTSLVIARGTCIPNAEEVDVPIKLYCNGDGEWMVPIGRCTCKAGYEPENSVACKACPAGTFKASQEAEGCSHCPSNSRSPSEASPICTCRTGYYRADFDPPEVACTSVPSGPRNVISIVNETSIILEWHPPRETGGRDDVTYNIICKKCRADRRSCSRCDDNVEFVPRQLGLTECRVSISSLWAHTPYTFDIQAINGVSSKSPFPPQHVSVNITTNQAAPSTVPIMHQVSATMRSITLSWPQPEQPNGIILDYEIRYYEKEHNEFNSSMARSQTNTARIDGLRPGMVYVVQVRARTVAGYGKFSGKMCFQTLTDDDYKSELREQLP
The test can be described thus: ELISA.

The target in another test is T3, rmEph B3 (mouse, UniProt P54754).
T3 sequence (receptor, looked up): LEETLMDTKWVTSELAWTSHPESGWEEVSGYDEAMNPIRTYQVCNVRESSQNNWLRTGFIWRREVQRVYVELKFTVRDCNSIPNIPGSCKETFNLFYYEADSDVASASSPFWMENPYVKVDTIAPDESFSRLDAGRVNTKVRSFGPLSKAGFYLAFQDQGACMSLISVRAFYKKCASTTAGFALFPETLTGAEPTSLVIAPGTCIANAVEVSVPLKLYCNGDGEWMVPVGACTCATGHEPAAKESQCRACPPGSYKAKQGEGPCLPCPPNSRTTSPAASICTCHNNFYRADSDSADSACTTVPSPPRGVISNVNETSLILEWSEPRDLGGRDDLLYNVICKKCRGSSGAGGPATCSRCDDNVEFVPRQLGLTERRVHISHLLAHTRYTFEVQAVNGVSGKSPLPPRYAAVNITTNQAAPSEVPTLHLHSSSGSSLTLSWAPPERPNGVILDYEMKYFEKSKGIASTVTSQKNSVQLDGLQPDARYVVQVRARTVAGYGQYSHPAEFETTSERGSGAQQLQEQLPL
The test can be described thus: ELISA.

Another test concerns the target T4, hEph A1.
T4 construct: also called human EphA1; not shown: Fc portion of the probable EphA1-Fc fusion (human IgG1 Fc)
T4 chain: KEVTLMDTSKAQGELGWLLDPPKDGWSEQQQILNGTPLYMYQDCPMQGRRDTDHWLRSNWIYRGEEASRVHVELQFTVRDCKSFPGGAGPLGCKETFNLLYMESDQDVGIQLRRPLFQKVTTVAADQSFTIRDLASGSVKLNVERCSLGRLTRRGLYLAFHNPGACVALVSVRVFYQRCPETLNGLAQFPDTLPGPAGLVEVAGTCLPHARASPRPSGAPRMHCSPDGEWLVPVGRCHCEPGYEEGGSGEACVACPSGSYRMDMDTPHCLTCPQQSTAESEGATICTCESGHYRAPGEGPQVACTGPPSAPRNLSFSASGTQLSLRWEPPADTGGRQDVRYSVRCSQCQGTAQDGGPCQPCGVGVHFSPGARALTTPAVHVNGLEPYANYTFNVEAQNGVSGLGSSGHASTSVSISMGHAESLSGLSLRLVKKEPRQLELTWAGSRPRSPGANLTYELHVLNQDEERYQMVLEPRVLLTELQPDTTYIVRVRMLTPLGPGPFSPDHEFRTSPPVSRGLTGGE
The test can be described thus: ELISA.

The target of test [1] is T5, human EphA4 (construct not given) (human, UniProt P54764 20-547, limits assumed).
T5 construct: also called EphA4 receptor
T5 sequence (P54764 20-547 limits assumed): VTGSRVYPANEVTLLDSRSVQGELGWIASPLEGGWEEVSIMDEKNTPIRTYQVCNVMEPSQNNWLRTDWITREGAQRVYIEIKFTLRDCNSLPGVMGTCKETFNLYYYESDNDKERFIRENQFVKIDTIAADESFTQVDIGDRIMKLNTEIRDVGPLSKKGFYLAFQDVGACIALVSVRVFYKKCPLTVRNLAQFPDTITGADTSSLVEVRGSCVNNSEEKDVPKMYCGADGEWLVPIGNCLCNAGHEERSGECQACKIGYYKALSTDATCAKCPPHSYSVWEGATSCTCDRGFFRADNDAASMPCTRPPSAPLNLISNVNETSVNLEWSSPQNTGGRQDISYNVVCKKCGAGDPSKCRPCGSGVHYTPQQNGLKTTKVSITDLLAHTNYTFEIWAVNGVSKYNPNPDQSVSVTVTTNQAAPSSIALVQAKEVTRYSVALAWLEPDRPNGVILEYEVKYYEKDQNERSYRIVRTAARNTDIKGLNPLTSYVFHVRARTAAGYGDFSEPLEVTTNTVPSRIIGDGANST
Put plainly: ELISA.

In another test the target is mEph A4 (mouse, UniProt Q03137). The test can be described thus: ELISA.
Sequence of mEph A4 (Q03137 20-547 limits assumed): as the sequence (P54764 20-547 limits assumed) above, with P59A, N121S, V124G, R250Q, S251N, T270S, K378R, N406S counted along it
The target in the next test is T6, mEph A6 (mouse, UniProt Q62413).
T6 sequence (receptor, looked up): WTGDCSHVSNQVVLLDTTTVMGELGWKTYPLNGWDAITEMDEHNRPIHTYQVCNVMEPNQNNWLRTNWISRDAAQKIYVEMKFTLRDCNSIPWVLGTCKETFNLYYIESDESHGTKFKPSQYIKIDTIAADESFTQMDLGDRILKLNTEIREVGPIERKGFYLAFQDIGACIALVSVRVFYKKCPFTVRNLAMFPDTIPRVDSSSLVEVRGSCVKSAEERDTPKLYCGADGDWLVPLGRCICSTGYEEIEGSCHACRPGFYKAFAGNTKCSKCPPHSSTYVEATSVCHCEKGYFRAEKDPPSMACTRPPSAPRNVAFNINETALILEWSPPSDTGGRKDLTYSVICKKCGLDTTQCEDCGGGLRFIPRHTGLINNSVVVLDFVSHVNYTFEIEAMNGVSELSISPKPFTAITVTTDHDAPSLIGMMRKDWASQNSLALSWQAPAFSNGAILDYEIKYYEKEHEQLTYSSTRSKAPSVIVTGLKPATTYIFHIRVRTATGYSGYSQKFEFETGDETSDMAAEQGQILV
The test can be described thus: ELISA.

The next test has as its target rEph A5 (rat, UniProt P54757). The test can be described thus: ELISA.
The target in another test is T7, r murine EphA4 (mouse, UniProt Q03137).
T7 construct: recombinant Fc fusion (R&D Systems); also called rmuEphA4-Fc; mEphA4
T7 sequence (Q03137 20-547 limits assumed): as the sequence (P54764 20-547 limits assumed) above, with P59A, N121S, V124G, R250Q, S251N, T270S, K378R, N406S counted along it
The test can be described thus: activity ELISA, Fab on coated antigen. The protocol: (§1) More precisely, Nunc Maxisorp plates were coated with the following rEphA proteins: rhuEphAl-Fc, rmuEphA2-Fc, rmuEphA3-Fc, rmuEphA4-Fc, rratEphA5-Fc, rmuEphA6-Fc, rmuEphA7-Fc, rEphA8; all at 0.5 μg/well (all R&D Systems) rhuEphA2-Fc; 0.5 μg/well, and rhuEphA4-His; 0.1 μg/well (both produced at MedImmune, Inc.). Plates were blocked with 3% BSA+0.1% Tween20 for 2 h. […] Incubation with a goat anti-human kappa horseradish peroxydase (HRP) conjugate then followed. HRP activity was detected with TMB substrate and the reaction quenched with 0.2 M H₂SO₄. Plates were read at 450 nm. Data was analyzed by normalizing Fab concentrations to the corresponding activity data (see FIGS. 10B-10H).

For a further test, the target named is T8, r murine EphA7 (mouse, UniProt Q61772).
T8 construct: recombinant Fc fusion (R&D Systems); also called rmuEphA7-Fc; mEphA7
T8 sequence (receptor-Fc fusion, looked up): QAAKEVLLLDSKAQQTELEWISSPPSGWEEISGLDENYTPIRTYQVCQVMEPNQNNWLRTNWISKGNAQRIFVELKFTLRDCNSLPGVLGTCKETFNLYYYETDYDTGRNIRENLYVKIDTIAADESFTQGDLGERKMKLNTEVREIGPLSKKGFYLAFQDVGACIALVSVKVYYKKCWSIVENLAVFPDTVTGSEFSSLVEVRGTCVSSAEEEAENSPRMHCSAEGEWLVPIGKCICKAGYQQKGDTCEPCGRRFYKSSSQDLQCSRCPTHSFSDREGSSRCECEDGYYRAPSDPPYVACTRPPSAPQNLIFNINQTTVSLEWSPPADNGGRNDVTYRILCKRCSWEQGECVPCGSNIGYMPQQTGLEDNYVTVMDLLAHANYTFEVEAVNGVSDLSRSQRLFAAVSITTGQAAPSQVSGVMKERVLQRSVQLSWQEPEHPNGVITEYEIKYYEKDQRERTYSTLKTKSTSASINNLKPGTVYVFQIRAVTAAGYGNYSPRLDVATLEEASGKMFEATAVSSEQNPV
Put plainly: activity ELISA, Fab on coated antigen. The protocol:
as §1

Test [2] concerns the target T9, r murine EphA8 (mouse, UniProt O09127).
T9 construct: recombinant (rEphA8, R&D Systems); also called rEphA8
T9 sequence (receptor, looked up): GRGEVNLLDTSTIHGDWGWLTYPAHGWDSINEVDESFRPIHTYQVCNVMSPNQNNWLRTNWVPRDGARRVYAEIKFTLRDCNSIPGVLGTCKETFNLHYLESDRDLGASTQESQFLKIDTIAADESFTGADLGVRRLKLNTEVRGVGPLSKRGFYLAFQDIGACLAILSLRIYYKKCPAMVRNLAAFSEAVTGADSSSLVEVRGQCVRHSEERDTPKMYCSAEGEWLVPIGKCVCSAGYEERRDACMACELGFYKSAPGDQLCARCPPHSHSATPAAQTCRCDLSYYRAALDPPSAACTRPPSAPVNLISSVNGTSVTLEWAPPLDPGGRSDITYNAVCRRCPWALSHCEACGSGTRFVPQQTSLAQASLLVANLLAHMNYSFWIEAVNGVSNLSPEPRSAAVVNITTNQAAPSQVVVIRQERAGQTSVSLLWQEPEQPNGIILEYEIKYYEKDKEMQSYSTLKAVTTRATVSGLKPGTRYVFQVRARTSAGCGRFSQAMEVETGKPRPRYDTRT
Put plainly: activity ELISA, Fab on coated antigen. On the procedure:
as §1

Test [3] deals with T10, r murine EphA8 (mouse, UniProt O09127).
T10 construct: recombinant soluble protein coated on the plate; also called mEphA8; rEphA8
T10 sequence (receptor construct, looked up): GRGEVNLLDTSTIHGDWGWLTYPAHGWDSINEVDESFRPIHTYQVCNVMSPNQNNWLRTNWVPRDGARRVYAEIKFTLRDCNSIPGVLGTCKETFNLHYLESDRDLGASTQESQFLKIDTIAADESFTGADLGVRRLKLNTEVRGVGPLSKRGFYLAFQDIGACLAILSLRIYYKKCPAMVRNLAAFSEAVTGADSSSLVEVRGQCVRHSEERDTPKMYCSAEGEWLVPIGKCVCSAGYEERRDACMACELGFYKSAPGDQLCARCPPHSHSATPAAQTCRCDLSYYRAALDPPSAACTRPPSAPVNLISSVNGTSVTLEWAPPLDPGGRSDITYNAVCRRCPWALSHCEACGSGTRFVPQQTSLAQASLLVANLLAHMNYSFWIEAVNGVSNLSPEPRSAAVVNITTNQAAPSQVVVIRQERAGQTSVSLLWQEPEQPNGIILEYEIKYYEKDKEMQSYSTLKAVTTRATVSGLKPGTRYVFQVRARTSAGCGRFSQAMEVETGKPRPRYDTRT
The test can be described thus: Activity ELISA, receptor coated on the plate, periplasmic Fab, anti-human kappa-HRP, OD 450 nm.

Sequence of rEph A5 (P54757 27-575 limits assumed): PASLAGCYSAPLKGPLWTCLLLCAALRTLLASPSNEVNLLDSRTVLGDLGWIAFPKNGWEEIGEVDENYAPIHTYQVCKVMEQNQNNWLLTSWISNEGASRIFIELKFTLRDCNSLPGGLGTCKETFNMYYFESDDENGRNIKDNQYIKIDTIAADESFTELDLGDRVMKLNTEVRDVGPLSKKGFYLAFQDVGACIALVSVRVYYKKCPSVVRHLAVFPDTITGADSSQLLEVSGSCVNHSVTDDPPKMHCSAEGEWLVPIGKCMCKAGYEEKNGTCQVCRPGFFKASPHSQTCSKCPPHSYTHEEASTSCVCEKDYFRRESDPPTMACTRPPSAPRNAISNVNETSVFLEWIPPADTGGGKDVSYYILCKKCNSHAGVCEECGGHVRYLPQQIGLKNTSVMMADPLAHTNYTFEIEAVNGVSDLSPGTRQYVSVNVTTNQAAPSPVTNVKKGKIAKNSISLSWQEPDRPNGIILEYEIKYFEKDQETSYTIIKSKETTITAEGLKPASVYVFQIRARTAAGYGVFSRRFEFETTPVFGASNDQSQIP

B1: GEA44 11H1 (antibody, V domains shown)
VH: QVQLLQSGAEVKKPGASVKVPCKASGYTFTSYAMSWVRQAPGQGLEWMGWINTNTGNPTYAQGFTGRFVFSLDTSVSTAYLQISSLKAEDTAVYYCARVRLTVYGDGMDVWGQGTLVTVSS
VL: EIVLTQSPATLSVSPGERATLSCRASQSVSSNLAWYQQKPGQAPRLLIYGASTRATGIPDRFSASGSGTDFTLTISRVEPEDFAVYYCQQYGSSWTFGQGTKVEIK
notes: same variable regions as m16
On to B1, for which the “ELISA O.D. value” came out at 0.581 with rmEph B2; 0.784 with hEph A1; 0.887 in [1]; 0.358 in the test with mEph A4; 1.43 in the test with mEph A6; 0.717 with rEph A5. The binding result in the test with rrEphB1 and with rmEph B3 was “binds” throughout.

B2: 3A12 Fab (affinity optimized combinatorial variant of Fab20) (Fab, V domains shown)
VH: QVQLLQSGAEVKKPGASVKVPCKASGYTFTSRAMSWVRQAPGQGLEWMGWINTNTGNPTYAQGFTGRFVFSLDTSVSTAYLQISSLKAEDTAVYYCARVRFTVYGDGMDVWGQGTLVTVSS
VL: EIVLTQSPATLSVSPGERATLSCRASQSVSSNLAWYQQKPGQAPRLLIYGASTWATGIPDRFSASGSGTDFTLTISRVEPEDFAVYYCQQYGPSWTFGQGTKVEIK
On to B2, for which the binding result with r murine EphA4, in the test with r murine EphA7, with r murine EphA8 [2] and with r murine EphA8 [3] was “binds” each time.
